In US20160303258A1:
Where no end group is shown, it is not given here. The star is where a group is joined. DOTA = O=C(O)CN1CCN(CC(=O)O)CCN(CC(=O)*)CCN(CC(=O)O)CC1; Ahx = NCCCCCC(=O)O

What was measured:
[1] = target: guanylyl cyclase C (GCC) (human), P25092; assay: in vivo competitive binding against [68Ga]MLN6907 DP in tumor models with different GCC expression levels; semi-mechanistic model
[2] = target: guanylyl cyclase C (GCC) (human), P25092; assay: in vitro competitive binding assay with HEK-293 GCC clone 2 cells (Indium-111 used as surrogate label; FIG. 13)
[3] = target: guanylyl cyclase C (GCC) (human), P25092; assay: competitive binding against [111In]MLN6907 on HEK-293 GCC Clone 2 cells; DSP treated with chelation reaction conditions (acetone:HCl, about 100 C, 10 min)
[4] = target: guanylyl cyclase C (GCC) (human), P25092; assay: competitive binding against [111In]MLN6907 on HEK-293 GCC Clone 2 cells; DSP without chelation reaction conditions
[5] = target: guanylyl cyclase C (GCC) (human), P25092; assay: in vivo competitive binding study with [68Ga]MLN6907 in HEK-293 GCC Clone 2 tumor-bearing mice, model-derived

guanylyl cyclase C (GCC) (human), P25092, sequence (P25092 24-1073 limits assumed): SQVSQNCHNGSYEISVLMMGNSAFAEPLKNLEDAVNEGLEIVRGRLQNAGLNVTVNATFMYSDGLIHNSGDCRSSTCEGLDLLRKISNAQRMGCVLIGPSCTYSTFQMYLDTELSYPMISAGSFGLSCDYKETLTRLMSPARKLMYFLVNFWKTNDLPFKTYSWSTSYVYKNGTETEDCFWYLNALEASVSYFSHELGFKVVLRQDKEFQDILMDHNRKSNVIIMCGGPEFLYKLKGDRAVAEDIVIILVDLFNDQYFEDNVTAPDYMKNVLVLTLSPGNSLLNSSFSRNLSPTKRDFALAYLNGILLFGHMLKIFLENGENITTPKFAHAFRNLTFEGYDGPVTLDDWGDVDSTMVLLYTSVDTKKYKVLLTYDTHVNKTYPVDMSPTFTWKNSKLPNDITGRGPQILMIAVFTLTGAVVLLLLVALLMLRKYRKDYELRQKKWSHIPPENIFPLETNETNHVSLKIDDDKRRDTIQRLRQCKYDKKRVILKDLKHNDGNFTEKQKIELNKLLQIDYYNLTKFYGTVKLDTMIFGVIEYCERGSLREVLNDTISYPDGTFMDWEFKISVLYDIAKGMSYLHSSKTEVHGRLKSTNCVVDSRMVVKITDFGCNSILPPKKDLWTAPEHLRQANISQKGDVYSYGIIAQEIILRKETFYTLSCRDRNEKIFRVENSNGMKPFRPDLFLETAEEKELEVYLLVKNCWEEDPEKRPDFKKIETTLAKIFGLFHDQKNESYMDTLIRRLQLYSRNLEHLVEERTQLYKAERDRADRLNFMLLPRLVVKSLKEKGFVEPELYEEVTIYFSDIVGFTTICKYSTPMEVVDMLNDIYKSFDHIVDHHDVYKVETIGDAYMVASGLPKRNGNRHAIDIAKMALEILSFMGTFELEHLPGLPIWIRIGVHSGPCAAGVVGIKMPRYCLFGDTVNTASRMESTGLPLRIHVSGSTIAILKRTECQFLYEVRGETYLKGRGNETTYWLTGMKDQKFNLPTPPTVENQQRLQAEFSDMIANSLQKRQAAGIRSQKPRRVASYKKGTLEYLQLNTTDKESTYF

B1: MLN6907 DSP (drug substance precursor), Formula (VI): DOTA-Ahx-STp(5-18), not radiolabeled (peptide)
peptide: CCELCCNPACAGCY
modifications: not checked
Question: For B1, which EC50 [1] is on record?
Answer: The EC50 was 97.1 to 5660 nM.

Question: And the Kd [2]?
Answer: Its Kd is 3.2 nM.

Question: And the IC50 [3]?
Answer: The IC50 was 4.75 nM.

Question: And the IC50 [4]?
Answer: The IC50 was 4.59 nM.

B2: [68Ga]MLN6907 DP (drug product), Formula (VIa) (peptide)
peptide: {DOTA-Ahx}-CCELCCNPACAGCY
modifications: ends and bridges not checked; also: 68Ga complexed by DOTA, cyclised (places not given here)
Question: With B2 as the binder, how does the Bmax (antigen surface density, HEK-293 GCC Clone 2) [5] read?
Answer: The Bmax (antigen surface density, HEK-293 GCC Clone 2) was 14000.
